Data set [1] concerns the target T1, subunit 2 of the apoptosis-inducing protein from Helicobacter pylori (amino acids 380-567 of the protein … (Helicobacter pylori strain 26695)).
T1 construct: Purified from the membrane fraction of H. pylori strain 26695; this follows from the lengths; also called about 22 kDa band
T1 chain: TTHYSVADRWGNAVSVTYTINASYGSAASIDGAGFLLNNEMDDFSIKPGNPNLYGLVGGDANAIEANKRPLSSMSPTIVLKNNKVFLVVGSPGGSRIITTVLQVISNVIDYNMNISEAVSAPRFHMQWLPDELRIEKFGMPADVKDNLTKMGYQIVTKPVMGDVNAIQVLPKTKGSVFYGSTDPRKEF
Description: native PAGE under acid condition (single band), then 2D SDS-PAGE (two bands, about 40 kDa and 22 kDa).

Data set [2] concerns human gastric adenocarcinoma cell line AGS. Put plainly: cytotoxic effect assayed using WST-1 kit in AGS cells. To be noted: FIG. 7. Type of data set: cell-based. As to the method: In this example, the apoptosis-inducing activity was measured as the cytotoxic activity in human gastric adenocarcinoma cell line AGS (ATCC CRL 1739) using Quick Cell Proliferation Assay Kit (Cat.BV-K301-10) (BioVision). The cell viability (surviving cell), from which an apoptosis-inducing activity is calculated, is based on the activity of intracellular mitochondrial dehydrogenase activity as a marker enzyme and is measured by the absorbance at 450 nm after 1 hr incubation at 37° C. with the substrate of the enzyme. The absorbance indicates the cell viability. The more cytotoxic, the less the absorbance is according to the mesurement.
(§1) In this example, the apoptosis-inducing activity of the protein purified in example 1 was examined in human gastric adenocarcinoma cell line AGS (ATCC CRL 1739), in human gastric carcinoma cell line KATO III (Human Science Research Resources Bank, Cat No. JCRB0611 (ATCC, HTB-103)) and in human uterine cervix cancer-derived HeLa cell (Human Science Research Resources Bank, Cat No. JCRB9004).
(§2) The cytotoxic effect was assayed using WST-1 kit (Roche Diagnotics).

The subject of data set [3] is human gastric carcinoma cell line KATO III. Put plainly: cytotoxic effect assayed using WST-1 kit in KATO III cells. To be noted: FIG. 8. The data set is classed as cell-based. As to the method:
as §1, §2
Background: Tetrazolium assays rely on reduction of a dye to a coloured formazan, in cell work by metabolically active cells.

In data set [4] the test system is human uterine cervix cancer-derived HeLa cell. Description: cytotoxic effect assayed using WST-1 kit in HeLa cells. The data set is classed as cell-based. To be noted: FIG. 7. As to the method:
as §1, §2

The next data set deals with AGS cells. Put plainly: induction of apoptosis in AGS cells (Hoechst 33342 nuclear staining, fluorescence microscopy). Type of data set: cell-based, human. The conditions noted are these: Hoechst 33342 staining, FIG. 9. The source says: Also, the induction of apoptosis in AGS cells by the protein was examined: Trypsinized apoptotic and control cells were collected and stained with a fluorescent dye (Hoechst 33342), which stains cellular nuclei. Since the nuclei of apoptotic cells are highly condensed and fragmented, apoptotic cells are easily differentiated from control cells under fluorescence microscopy. Cells were put on a slide glass, the number of apoptotic cells and control cells were counted and the percentage of apoptotic cells in total cells was enumerated. At least total 500 cells were counted for each experiment.

The values below come from patent US20060051363A1, “Protein inducing cell death of helicobacter pylori” (JAPAN SCIENCE AND TECHNOLOGY AGENCY, priority 2002, published 2006).

B1: subunit 1 of the apoptosis-inducing protein from Helicobacter pylori (amino acids 27-379 of the protein encoded by the HP1118 gamma-glutamyl transferase gene) (enzyme)
chain: ASYPPIKNTKVGLALSSHPLASEIGQKVLEEGGNAIDAAVAIGFALAVVHPAAGNIGGGGFAVIHLANGENVALDFREKAPLKATKNMFLDKQGNVVPKLSEDGYLAAGVPGTVAGMEAMLKKYGTKKLSQLIDPAIKLAENGYAISQRQAETLKEARERFLKYSSSKKYFFKKGHLDYQEGDLFVQKDLAKTLNQIKTLGAKGFYQGQVAELIEKDMKKNGGIITKEDLASYNVKWRKPVVGSYRGYKIISMSPPSSGGTHLIQILNVMENADLSALGYGASKNIHIAAEAMRQAYADRSVYMGDADFVSVPVDKLINKAYAKKIFDTIQPDTVTPSSQIKPGMGQLHEGSN
notes: Purified from the membrane fraction of H. pylori strain 26695; this follows from the lengths; also called about 40 kDa band
On to B1, for which the binding result in data set [1] was “binds”.

B2: protein purified in example 1: Helicobacter pylori protein complex of two subunits (SEQ ID NO: 1 and 2; about 40 kDa and 22 kDa) encoded by the HP1118 gene (protein)
chain 1: B1 chain
chain 2: T1 chain
modifications: Helicobacter Pylori
notes: about 40 kDa and 22 kDa) encoded by the HP1118 gene
In the case of B2, the cytotoxic activity entry in data set [2], in data set [3] and in data set [4] was “has the cytotoxic activity” each time. Further, the “induction of apoptosis (percentage of apoptotic cells in total cells)” value in the data set on AGS cells is recorded as “mainly ascribed to apoptosis”.
